These results are taken from article PMC4041433.

In data set [1] the target is Pyrococcus furiosus ThermoDBP-related protein 1 (pfuThermoDBP-RP1) (Pyrococcus furiosus). Briefly: crystal structure.
Data set [2] shares this target. As to the kind of experiment: SEC.
For data set [3], the target named is Aeropyrum pernix ThermoDBP-related protein 2 (apeThermoDBP-RP2) (Aeropyrum pernix). As to the kind of experiment: crystal structure.
Data set [4] has the same target. Briefly: crystal structure. The source holds these as a separate data set.
For data set [5] the target is unchanged. As to the kind of experiment: SEC. (SEC sorts molecules by how far they enter the pores of the column.)
For data set [6], the target named is T1, apeThermoDBP-RP2 (Aeropyrum pernix, UniProt Q9YAS7 1-234).
T1 sequence: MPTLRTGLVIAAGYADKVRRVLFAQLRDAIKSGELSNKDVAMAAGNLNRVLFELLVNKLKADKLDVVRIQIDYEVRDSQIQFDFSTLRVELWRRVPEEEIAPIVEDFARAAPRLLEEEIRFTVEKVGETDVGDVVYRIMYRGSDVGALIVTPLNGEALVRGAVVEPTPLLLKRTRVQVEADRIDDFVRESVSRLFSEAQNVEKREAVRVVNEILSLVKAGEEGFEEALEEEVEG
As to the kind of experiment: EMSA. For orientation: Mobility shift assays separate free from complexed probe on a gel.

Data set [7] addresses T1, apeThermoDBP-RP2. As to the kind of experiment: EMSA. This is another data set of the same source.
The target in data set [8] is T1, apeThermoDBP-RP2. Briefly: EMSA. This is another data set of the same source.
The target of data set [9] is T1, apeThermoDBP-RP2. Briefly: EMSA. This is another data set of the same source.

Read-outs that look alike come from different tables or passages of the source.

In the case of “Pyrococcus furiosus ThermoDBP-related protein 1 (pfuThermoDBP-RP1) (natural protein)”, the stoichiometry N in data set [1] and in [2] was 4 each time.

For the molecule “Aeropyrum pernix ThermoDBP-related protein 2 (apeThermoDBP-RP2) (natural protein)”, the stoichiometry N in [3], in data set [4] and in data set [5] was 4 in each case.

TTTTTTTTTTTTTTT (ssDNA) [dT15]: in the data set with apeThermoDBP-RP2 [6], the binding result is “binds”.

With TTTTTTTTTTTTTTTTTTTTTTTTT (ssDNA) [dT25], the binding result with apeThermoDBP-RP2 [6] is “binds”.

For the molecule CTTGCTAGGACGGATCCCTCGAGGTTTTTTTTTTTTTTTTTTTT (ssDNA) [45-mer ssDNA], in the data set with apeThermoDBP-RP2 [7], the binding result is reported as “binds”.

Take TTTTTTTTTTTTTTTTTTTT (ssDNA) [dT20]: the binding result with apeThermoDBP-RP2 [6] is listed as “binds”.

As for TTTTTTTTTTTTTTTTTTTTTTTTTTTTTTTTTTT (ssDNA) [dT35], the binding result in the data set with apeThermoDBP-RP2 [8] is reported as “binds”.

Regarding TTTTTTTTTTTTTTTTTTTTTTTTTTTTTT (ssDNA) [dT30], the binding result with apeThermoDBP-RP2 [9] was “binds”.

As a reminder, the stoichiometry N is a count of units in the complex or per binding partner.
